B1: BCMA CAR construct with ScFv sequence 49 (MTB-49) (other, not shown: large carriers)
chain: EVQLVESGGGVVQPGRSLRLSCAASGFTFSSYGMHWVRQAPGKGLEWVAFIRYDGSNKYYADSVKGRFTISRDNSKNTLYLQMNSLRAEDTAVYYCVSDDYGGNSGTSYWGQGTLVTVSSGGGGSGGGGSGGGGSDIQMTQSPSSLSASVGDRVTITCQASQDISNYLNWYQQKPGKAPKLLIYDASNLETGVPSRFSGSGSGTDFTLTISSLQPEDFATYYCQQSYSTPVTFGGGTKLTVLG
B2: BCMA CAR construct with ScFv sequence 14 (MTB-14) (other, not shown: large carriers)
chain: B1 chain
B3: BCMA CAR construct with ScFv sequence 3 (MTB-3) (other, not shown: large carriers)
chain: EVQLVESGGGVVQPGGSLRLSCAASGFTFSSYGMHWVRQAPGKGLEWVAFIRYDGSNKYYADSVKGRFTISRDNSKNTLYLQMNSLRAEDTAVYYCAKDDYGGNSEGDYWGQGTLVTVSSGGGGSGGGGSGGGGSEIVLTQSPATLSVSLGERATLSCRASQSVSNSLAWYQQKPGQAPRLLIYDASTRATGIPARFSGSGSGTEFTLTISSLQPEDFATYFCQQTYSPPITFGQGTRLEIKR
B4: BCMA CAR construct with ScFv sequence 39 (MTB-39) (other, not shown: large carriers)
chain: EVQLVESGGGVVQPGGSLRLSCAASGFTFSGYGMHWVRQAPGKGLEWVAFIRYDGSNKYYADSVKGRFTISRDNSKNTLYLQMNSLRAEDTAVYYCARDGARNDYWGQGTLVTVSSGGGGSGGGGSGGGGSNFMLTQPHSVSESPGKTVTISCTRSSGSIASNYVQWYQQRPGSAPTTVIYEDNQRPSGVPDRFSGSIDSSSNSASLTISGLKTEDEADYYCQTYDDNNHVIFGGGTQLTVLG
B5: CAR D0099 (Ef1a-BCMA sequence 4-12 CD8 BBz) (other)
chain: QVQLVQSGGGVVQPGGSLRLSCAASGFTFSSYVIHWVRQAPGKGLEWVAAISHDGSNKYYADSVKGRFTISRDNSKNTLYLQMSSLSAEDTAMYYCVKTSSDYYYAYWGQGTLVTVSSGGGGSGGGGSGGGGSQTVVTQEPSFSVSPGGTVTLTCGLSSGSVSTGNSPTWYQQTPGQAPRTLIYSTNTRSSGVPDRFSGSILGNKAALTITGAQADDESDYYCVLYMGSGYWVFGGGTKVTVLGAAATTTPAPRPPTPAPTIASQPLSLRPEACRPAAGGAVHTRGLDFACDIYIWAPLAGTCGVLLLSLVITLYCKRGRKKLLYIFKQPFMRPVQTTQEEDGCSCRFPEEEEGGCELRVKFSRSADAPAYQQGQNQLYNELNLGRREEYDVLDKRRGRDPEMGGKPRRKNPQEGLYNELQKDKMAEAYSEIGMKGERRRGKGHDGLYQGLSTATKDTYDALHMQALPPR
B6: CAR D0100 (Ef1a-BCMA sequence 4-45 CD8 BBz) (other)
chain: EVQLVQSGAEVKKPGASVKVSCKASGYTSTSYYMHWVRQAPGQGLEWMGIINPSGGSTSYAQKFQGRVTMTRDTSTSTVYMELSSLRSEDTAVYYCARDLGDGAFDIWGQGTMVTVSSGGGGSGGGGSGGGGSDIQMTQSLSSLSASVGDRVTIACRASQTISRYLNWYQQKPGKAPKLLIYAASSLQSGVSSRFSGSGSGTEFTLTISSLQPEDFATYFCQQTYSPPITFGQGTRLEIKRAAATTTPAPRPPTPAPTIASQPLSLRPEACRPAAGGAVHTRGLDFACDIYIWAPLAGTCGVLLLSLVITLYCKRGRKKLLYIFKQPFMRPVQTTQEEDGCSCRFPEEEEGGCELRVKFSRSADAPAYQQGQNQLYNELNLGRREEYDVLDKRRGRDPEMGGKPRRKNPQEGLYNELQKDKMAEAYSEIGMKGERRRGKGHDGLYQGLSTATKDTYDALHMQALPPR
B7: CAR D0085 (Ef1a-BCMA sequence 16 CD8 BBz) (other)
chain: EVQLVQSGGGVVQPGGSLRLSCAASGFTFSSYGMHWVRQAPGKGLEWVAFIRYDGSNKYYADSVKGRFTISRDNSKNTLYLQMNSLRAEDTAVYYCARDLNDYGDPPPYWGQGTLVTVSSGGGGSGGGGSGGGGSDIQMTQSPSSLSASVGDRVTITCRASQSISSYLNWYQQKPGKAPKLLIYDASNLETGVSSRFSGSGSGTEFTLTISSLQPEDFATYFCQQTYSPPITFGQGTRLEIKRAAATTTPAPRPPTPAPTIASQPLSLRPEACRPAAGGAVHTRGLDFACDIYIWAPLAGTCGVLLLSLVITLYCKRGRKKLLYIFKQPFMRPVQTTQEEDGCSCRFPEEEEGGCELRVKFSRSADAPAYQQGQNQLYNELNLGRREEYDVLDKRRGRDPEMGGKPRRKNPQEGLYNELQKDKMAEAYSEIGMKGERRRGKGHDGLYQGLSTATKDTYDALHMQALPPR
B8: CAR D0086 (Ef1a-BCMA sequence 37 CD8 BBz) (other)
chain: EVQLVESGGGLVKPGGSLRLSCAASGFTFSSYGMHWVRQAPGKGLEWVAFIRYDGSNKYYADSVKGRFTISRDNSKNTLYLQMNSLRAEDTAVYYCAKDWEYSGYDAHPGWGQGTLVTVSSGGGGSGGGGSGGGGSDIQLTQSPSSLSASVGDRVTITCRASQGISSALAWYQQKPGKAPKLLIYDASSLESGVPSRFSGSGSGTEFTLTISSLQPEDFATYFCQQTYSPPITFGQGTRLEIKRAAATTTPAPRPPTPAPTIASQPLSLRPEACRPAAGGAVHTRGLDFACDIYIWAPLAGTCGVLLLSLVITLYCKRGRKKLLYIFKQPFMRPVQTTQEEDGCSCRFPEEEEGGCELRVKFSRSADAPAYQQGQNQLYNELNLGRREEYDVLDKRRGRDPEMGGKPRRKNPQEGLYNELQKDKMAEAYSEIGMKGERRRGKGHDGLYQGLSTATKDTYDALHMQALPPR
B9: BCMA CAR construct with ScFv sequence 2 (MTB-2) (other, not shown: large carriers)
chain: EVQLVQSGGGLVQPGGSLRLSCAASGFTFSSYWMSWVRQAPGKGLEWVSGINGSGDRTYYADSVKGRFTISRDNSKNTLYLQMNSLRAEDTAVYYCANYNYDDNSGYGLGQGTLVTVSSGGGGSGGGGSGGGGSQSVLTQPPSVSVAPGKTARITCGGNNIGSKSVHWYQQKPGQAPVLVIYDDSDRPSGIPERFSGSNSGNTATLTISRVEAGDEADYYCQVWDSSSDHWVFGGGTKVTVLG
B10: BCMA CAR construct with ScFv sequence 28 (MTB-28) (other, not shown: large carriers)
chain: QVQLVESGGGVVQPGGSLRLSCAASGFTFSSYGMHWVRQAPGKGLEWVAFIRYDGSNKYYADSVKGRFTISRDNSKNTLYLQMNSLRAEDTAVYYCARDSYSSSGDPRAFDPWGQGTLVTVSSGGGGSGGGGSGGGGSNFMLTQPHSVSESPGKTVTISCTGSSGSIASNYVQWYQQRPGSAPSTVIFEDNQRPSGVPGRFSGSVDRSSNSASLTISGLKTEDEADYYCQSYDSNNRGLFGGGTKVTVLG
B11: CAR D0087 (Ef1a-BCMA sequence 40 CD8 BBz) (other)
chain: EVQLVQSGGGVVQPGGSLRLSCAASGFTFSSYGMHWVRQAPGKGLEWVAFIRYDGSNKYYADSVKGRFTISRDNSKNTLYLQMNSLRAEDTAVYYCAKEPPEYYYDSSGYSWGQGTLVTVSSGGGGSGGGGSGGGGSDIQLTQSPSSLSASVGDRVTITCQASQDIDTYLNWYQQKPGKAPKLLIYAASSLQSGVSSRFSGSGSGTEFTLTISSLQPEDFATYFCQQTYSPPITFGQGTRLEIKRAAATTTPAPRPPTPAPTIASQPLSLRPEACRPAAGGAVHTRGLDFACDIYIWAPLAGTCGVLLLSLVITLYCKRGRKKLLYIFKQPFMRPVQTTQEEDGCSCRFPEEEEGGCELRVKFSRSADAPAYQQGQNQLYNELNLGRREEYDVLDKRRGRDPEMGGKPRRKNPQEGLYNELQKDKMAEAYSEIGMKGERRRGKGHDGLYQGLSTATKDTYDALHMQALPPR
B12: BCMA CAR construct with ScFv sequence 50 (MTB-50) (other, not shown: large carriers)
chain: EVQLVQSGGGVVRPGGSLRLSCAASGFTFSTYEMNWVRQAPGKGLEWLAYIGGSGSPIYYADSVRGRFTISRDNTKNSLFLQMSSLRAEDTAVYYCVEGWFDKWGLGTLVTVSSGGGGSGGGGSGGGGSDIQLTQSPSTLSASVGDRVTITCRASQSISSYLNWYQQKPGKAPKLLIYDASNLETGVPSRFSGSGSGTDFTLTISSLQPEDFATYYCQQSYSTPYTFGQGTKLEIKR
B13: CAR D0153 (BCMA 4-1c CD8 BBz) (other)
chain: EVQLVETGGGVVQPGGSLRLSCAASGFTFSSYGMHWVRQAPGKGLEWVAFIRYDGSNKYYADSVKGRFTISRDNSKNTLYLQMNSLRAEDTAVYYCAKDWDTYYYDSSGYDRAWGQGTLVTVSSGGGGSGGGGSGGGGSDIQMTQSPSSLSASVGDRVTITCQASQDINNYLNWYQQKPGKAPKLLIYAASSLQSGVSSRFSGSGSGTEFTLTISSLQPEDFATYFCQQTYSPPITFGQGTRLEIKRAAATTTPAPRPPTPAPTIASQPLSLRPEACRPAAGGAVHTRGLDFACDIYIWAPLAGTCGVLLLSLVITLYCKRGRKKLLYIFKQPFMRPVQTTQEEDGCSCRFPEEEEGGCELRVKFSRSADAPAYQQGQNQLYNELNLGRREEYDVLDKRRGRDPEMGGKPRRKNPQEGLYNELQKDKMAEAYSEIGMKGERRRGKGHDGLYQGLSTATKDTYDALHMQALPPR
notes: Chimeric antigen receptor on transduced human primary T cells; also called D153; CAR D153

Each binder was assayed against T1, BCMA on BCMA-positive multiple myeloma tumor lines RPMI-8226 and MM1.S (human, UniProt Q02223 1-184) (assay: cell-based or functional assay).
T1 sequence (looked up): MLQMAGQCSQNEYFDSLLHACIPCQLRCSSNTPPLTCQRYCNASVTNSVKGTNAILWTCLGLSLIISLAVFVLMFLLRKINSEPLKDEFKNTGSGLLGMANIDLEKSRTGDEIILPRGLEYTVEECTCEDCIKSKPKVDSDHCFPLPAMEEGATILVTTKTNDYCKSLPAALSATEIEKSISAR

B1 and B2 cannot be ordered by “tumor lysis of RPMI-8226-luc, luciferase-based killing assay, E:T 5” value (shortened to “tumor lysis of RPMI-8226-luc”): > 40% for the first, > 40% for the second.

B3 and B4 cannot be ordered by “tumor lysis of RPMI-8226-luc” value: > 40% for the first, > 40% for the second.

B5 and B6 cannot be ordered by “tumor lysis of RPMI-8226-luc” value: > 40% for the first, > 40% for the second.

B7 and B8 cannot be ordered by “tumor lysis of RPMI-8226-luc” value: > 40% for the first, > 40% for the second.

B9 and B10 cannot be ordered by “tumor lysis of RPMI-8226-luc” value: ≤ 40% for the first, > 40% for the second.

B11 and B12 cannot be ordered by “tumor lysis of RPMI-8226-luc” value: > 40% for the first, > 40% for the second.

These binders were tested against T2, recombinant human BCMA (ectodomain)-Fc (human, UniProt Q02223 1-54) (assay: flow cytometry of transduced T cells; staining with recombinant human BCMA Fc chimera then anti-Fc-Alexa Fluor 647 (method in paragraph 320)).
T2 construct: extracellular domain; also called BCMA-Fc; BCMA-Fc peptide; not shown: Fc part
T2 sequence (looked up): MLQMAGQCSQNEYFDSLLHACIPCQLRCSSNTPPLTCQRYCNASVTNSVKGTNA
Method: To assess the cell surface expression of BCMA CARs, 0.5-1e6 CAR T-cells were resuspended in FACs buffer (Miltenyi Biotec's autoMACS Rinsing Solution+MACS BSA Stock Solution) and incubated with 0.5 ug of recombinant human BCMA Fc Chimera Protein (RNDsystems) for 20 mins at 4° C. Cells were washed twice and re-suspended in FACs buffer and incubated for 20 mins at 4° C. with anti-Fc-Alexa Fluor 647 at 1:200 dilution. Cells were again washed twice and resuspended in FACs buffer and incubated for 20 mins at 4° C. with anti-CD4-Vioblue or anti-CD8-Viogreen (Miltenyi Biotec) at 1:50 dilution and 7AAD at 1:20 dilution. Cells were subsequently washed and analyzed using the MACSQuant® Analyzer 10 flow cytometer (Miltenyi Biotec).

B13: binds.

Reference: patent US20260015403A1 (LENTIGEN TECHNOLOGY, published 2026)
